PMC13537762

Target: respiratory complex III (mouse (endogenous in liver mitochondria))
Experiment: native gel or EMSA; blue native PAGE (3-12% Bis-Tris) of digitonin-solubilised isolated liver mitochondria from control or CLS-LKO mice (standard chow); western blotting with a supercomplex antibody cocktail or subunit-specific antibodies

stoichiometry N: 2
Substance: respiratory complex III
